Measured values published in patent US7022666.

Molecular target: LIF receptor/gp130 heterodimer (rat) (UniProt O70535)
Test: cell-based or functional assay

Sequence of UniProt O70535 (O70535 44-1093, chain 1 of 2): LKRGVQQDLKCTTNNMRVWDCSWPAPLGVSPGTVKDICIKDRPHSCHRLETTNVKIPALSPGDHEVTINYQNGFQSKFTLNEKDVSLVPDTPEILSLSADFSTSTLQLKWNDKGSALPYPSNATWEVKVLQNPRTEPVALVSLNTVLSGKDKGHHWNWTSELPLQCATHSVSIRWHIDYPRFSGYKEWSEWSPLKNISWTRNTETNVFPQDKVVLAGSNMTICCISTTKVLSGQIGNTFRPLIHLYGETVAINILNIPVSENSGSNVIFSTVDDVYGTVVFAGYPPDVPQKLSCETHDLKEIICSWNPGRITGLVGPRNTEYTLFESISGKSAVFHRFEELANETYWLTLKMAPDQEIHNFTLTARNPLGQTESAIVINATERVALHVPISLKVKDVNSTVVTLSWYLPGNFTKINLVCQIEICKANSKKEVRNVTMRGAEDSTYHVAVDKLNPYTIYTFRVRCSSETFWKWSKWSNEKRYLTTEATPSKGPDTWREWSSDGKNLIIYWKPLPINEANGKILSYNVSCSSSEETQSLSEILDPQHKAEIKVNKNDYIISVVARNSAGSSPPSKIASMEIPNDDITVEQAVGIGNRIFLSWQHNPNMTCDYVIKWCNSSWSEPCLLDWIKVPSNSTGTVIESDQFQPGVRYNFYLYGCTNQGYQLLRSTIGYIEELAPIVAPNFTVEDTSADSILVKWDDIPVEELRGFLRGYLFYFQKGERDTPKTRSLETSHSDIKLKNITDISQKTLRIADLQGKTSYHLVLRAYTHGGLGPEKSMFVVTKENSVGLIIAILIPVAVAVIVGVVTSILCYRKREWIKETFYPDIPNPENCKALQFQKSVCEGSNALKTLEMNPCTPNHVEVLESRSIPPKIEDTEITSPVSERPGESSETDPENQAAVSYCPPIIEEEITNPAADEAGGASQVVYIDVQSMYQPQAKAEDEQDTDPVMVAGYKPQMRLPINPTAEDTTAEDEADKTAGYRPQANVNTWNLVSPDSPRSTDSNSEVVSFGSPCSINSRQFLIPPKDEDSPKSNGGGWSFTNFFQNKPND
Sequence of UniProt O70535 (P40190 23-918, chain 2 of 2, further chain): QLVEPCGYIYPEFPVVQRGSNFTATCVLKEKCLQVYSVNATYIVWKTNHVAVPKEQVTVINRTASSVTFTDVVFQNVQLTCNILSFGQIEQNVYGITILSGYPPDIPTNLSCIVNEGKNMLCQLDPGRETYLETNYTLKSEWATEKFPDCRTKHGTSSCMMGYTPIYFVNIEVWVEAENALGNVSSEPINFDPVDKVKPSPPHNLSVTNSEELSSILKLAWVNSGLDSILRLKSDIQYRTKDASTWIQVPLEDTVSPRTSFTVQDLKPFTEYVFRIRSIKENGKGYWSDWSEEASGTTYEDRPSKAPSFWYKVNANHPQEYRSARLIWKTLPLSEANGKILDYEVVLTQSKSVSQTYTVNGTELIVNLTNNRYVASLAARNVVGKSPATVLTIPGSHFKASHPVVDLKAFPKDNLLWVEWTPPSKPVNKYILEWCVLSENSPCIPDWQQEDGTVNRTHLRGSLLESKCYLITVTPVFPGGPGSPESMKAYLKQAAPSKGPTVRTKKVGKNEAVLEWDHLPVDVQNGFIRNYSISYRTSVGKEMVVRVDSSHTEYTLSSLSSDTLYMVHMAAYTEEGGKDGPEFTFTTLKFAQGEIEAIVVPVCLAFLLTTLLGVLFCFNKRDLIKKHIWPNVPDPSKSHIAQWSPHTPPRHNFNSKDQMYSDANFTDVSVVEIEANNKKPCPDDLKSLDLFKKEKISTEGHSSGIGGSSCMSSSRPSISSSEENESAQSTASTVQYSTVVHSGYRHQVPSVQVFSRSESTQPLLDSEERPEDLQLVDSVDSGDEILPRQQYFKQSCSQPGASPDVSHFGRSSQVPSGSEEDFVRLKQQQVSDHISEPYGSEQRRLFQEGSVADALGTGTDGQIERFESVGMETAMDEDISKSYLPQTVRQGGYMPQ

Substance: recombinant leukemia inhibitory factor (ligand)
- conversion of metanephric mesenchyme into epithelia (lowest active dose): 0.2 nM
